Measured values taken from patent US20250388702A1 (Dana-Farber, published 2025).

B1: KIR2DS3 (receptor, UniProt Q14952 22-304, looked up)
chain: HEGFRRKPSLLAHPGRLVKSEETVILQCWSDVMFEHFLLHREGTFNDTLRLIGEHIDGVSKANFSIGRMRQDLAGTYRCYGSVPHSPYQFSAPSDPLDIVITGLYEKPSLSAQPGPTVLAGESVTLSCSSWSSYDMYHLSTEGEAHERRFSAGPKVNGTFQADFPLGPATQGGTYRCFGSFHDSPYEWSKSSDPLLVSVTGNPSNSWPSPTEPSSKTGNPRHLHVLIGTSVVKLPFTILLFFLLHRWCSDKKNASVMDQGPAGNRTVNREDSDEQDHQEVSYA
notes: whole, on cells

Columns and labels:
[1] = target: T1, Human HHLA2-mIgG2a fusion protein (human; mouse, UniProt Q9UM44 23-344, limits assumed); test: cell microarray on transfected HEK293 cells, HHLA2-mIgG2a probe, AF647 anti-mouse IgG detection
T1 construct: also called HHLA2-Ig; HHLA2-mouse IgG2a; not shown: mutated at IgG2a L235E, E318A, K320A, K322A
T1 sequence: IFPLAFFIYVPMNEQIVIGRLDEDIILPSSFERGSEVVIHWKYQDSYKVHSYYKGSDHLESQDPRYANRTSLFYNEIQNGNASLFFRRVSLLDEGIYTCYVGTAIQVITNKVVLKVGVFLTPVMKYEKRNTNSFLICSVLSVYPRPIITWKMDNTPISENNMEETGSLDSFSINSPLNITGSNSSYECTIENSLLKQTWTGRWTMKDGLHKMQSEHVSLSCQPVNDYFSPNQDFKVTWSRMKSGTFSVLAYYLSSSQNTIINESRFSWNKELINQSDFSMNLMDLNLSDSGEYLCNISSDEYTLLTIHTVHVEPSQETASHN
Description: A library of ˜5500 full length cDNA clones covering more than 3,500 different plasma membrane proteins was arrayed in duplicate across 13 microarray slides (“slide sets”). Human HEK293 cells were grown above the cDNA clones and reverse-transfected. An expression vector (pIRES-hEGFR-IRES-ZsGreen1) was spotted in quadruplicate on every slide and was used to ensure that a minimal threshold of transfection efficiency had been achieved or exceeded on every slide.
Two replicate slides were screened for each of the 13 slide sets. Fluorescent images were analyzed and quantitated (for transfection efficiency) using ImageQuant software (GE). A protein ‘hit’ was defined as duplicate spots showing a raised signal compared to background levels. This was achieved by visual inspection using the images gridded on the ImageQuant software.

[2] = target: T2, Human PD1, Sino Biological Cat #: HPLC-10377-H08H (human, UniProt Q15116 25-167); test: BLI (Octet RED96), antibody captured on the sensor, antigen in solution, 1:1 model
T2 construct: Bought; also called PD-1 (Octet antigen)
T2 sequence (Q15116 25-167 limits assumed): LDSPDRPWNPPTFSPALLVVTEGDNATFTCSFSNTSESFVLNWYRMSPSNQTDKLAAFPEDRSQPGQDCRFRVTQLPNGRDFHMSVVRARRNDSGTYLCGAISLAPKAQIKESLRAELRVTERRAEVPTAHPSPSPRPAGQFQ
Description: (§1) Binding experiments were performed on Octat Red af 25″° C. The human antibodies were loaded onto Anti-higG Fe Capture biosensors and the mouse antibodies were loaded onto Anti-migG Fe Capture biosensors both for 300 seconds. The ligand loaded sensors were dipped into a 3-fold series dilution (starting at 300 nad) of the antigens (PD-1 and KIR3DL3) for 240 seconds followed by dissociation for 400 seconds. Kinetic constanta were calculated using a monovalent (1:1) binding model Antigen: Haman PD1, Sino Biological Cat #: HPLC-10377-HOSH.

[3] = target: T3, Human KIR3DL3, Sino Biological Cat#: 16055-H08H (human, UniProt Q8N743 26-322); test: as above
T3 construct: Bought soluble antigen; also called KIR3DL3 (Octet antigen)
T3 sequence (Q8N743 other isoform, or with tags, fused parts or gaps H08H H08H limits assumed): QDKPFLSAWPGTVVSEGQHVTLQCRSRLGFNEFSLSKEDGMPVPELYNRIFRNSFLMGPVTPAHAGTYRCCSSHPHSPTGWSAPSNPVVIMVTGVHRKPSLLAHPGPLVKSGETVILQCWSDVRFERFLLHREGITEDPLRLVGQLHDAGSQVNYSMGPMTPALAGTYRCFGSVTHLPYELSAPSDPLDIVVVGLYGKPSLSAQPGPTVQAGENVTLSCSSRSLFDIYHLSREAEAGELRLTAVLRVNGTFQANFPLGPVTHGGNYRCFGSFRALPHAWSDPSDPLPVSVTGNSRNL
Description: as §1

[4] = target: T4, KIR3DL1 (UniProt P43629 22-444, limits assumed); test: HEK293 cell microarray
T4 construct: whole, on cells
T4 sequence (P43629 22-444 limits assumed): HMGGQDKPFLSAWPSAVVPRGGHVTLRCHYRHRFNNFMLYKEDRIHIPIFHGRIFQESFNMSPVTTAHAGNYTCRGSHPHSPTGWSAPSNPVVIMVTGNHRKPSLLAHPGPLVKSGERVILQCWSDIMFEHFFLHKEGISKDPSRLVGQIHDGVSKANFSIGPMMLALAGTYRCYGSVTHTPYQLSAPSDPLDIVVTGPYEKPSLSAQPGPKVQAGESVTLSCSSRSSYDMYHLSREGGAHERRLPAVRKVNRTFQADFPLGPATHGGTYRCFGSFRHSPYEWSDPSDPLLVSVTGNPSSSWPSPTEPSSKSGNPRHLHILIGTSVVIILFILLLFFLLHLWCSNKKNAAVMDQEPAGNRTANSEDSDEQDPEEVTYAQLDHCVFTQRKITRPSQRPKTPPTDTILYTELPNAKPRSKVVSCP
Description: (§2) Replicate microarray slides expressing a complete KIR family cDNA panel were fixed and blocked with buffer containing PBS/0.5% BSA and incubated for 1 hour at room temperature with individual KIR3DL3 mAb hybridoma supernatants at 1:5, 1:25 and 1:250 dilutions in PBS/0.1% BSA. Cell arrays were washed with PBS and incubated for 1 hour at room temperature in PBS/0.1% BSA containing AF647-conjugated goat anti-mouse IgG (H+L) (Life Technologies, A21235). Slides were washed with PBS, dried, and imaged for ZsGreen1 and AF647 fluorescence.
as §2, with “In Table 4, replicate” for “Replicate”, “the” for “a complete”, “panel (as in FIG. 1A, FIG. 2B, and FIG. 2C)” for “panel”

[5] = target: T5, KIR3DL2 (UniProt P43630 22-455, limits assumed); test: HEK293 cell microarray
T5 construct: whole, on cells
T5 sequence (P43630 22-455 limits assumed): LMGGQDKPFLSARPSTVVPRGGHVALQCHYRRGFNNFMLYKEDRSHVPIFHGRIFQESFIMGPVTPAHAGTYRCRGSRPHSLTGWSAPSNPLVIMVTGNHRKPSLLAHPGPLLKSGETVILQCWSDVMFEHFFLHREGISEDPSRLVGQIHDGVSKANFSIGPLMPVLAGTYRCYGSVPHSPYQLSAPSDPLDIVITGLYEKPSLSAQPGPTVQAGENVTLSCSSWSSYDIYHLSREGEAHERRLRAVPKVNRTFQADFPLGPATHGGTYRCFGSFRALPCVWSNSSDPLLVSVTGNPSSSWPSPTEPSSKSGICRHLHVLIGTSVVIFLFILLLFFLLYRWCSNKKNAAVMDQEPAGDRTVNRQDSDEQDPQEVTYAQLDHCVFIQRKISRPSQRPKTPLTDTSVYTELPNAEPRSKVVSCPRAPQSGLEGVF
Description: as §2
as §2, with “In Table 4, replicate” for “Replicate”, “the” for “a complete”, “panel (as in FIG. 1A, FIG. 2B, and FIG. 2C)” for “panel”

[6] = target: T6, KIR2DL1 (UniProt P43626 22-348, limits assumed); test: HEK293 cell microarray
T6 construct: whole, on cells
T6 sequence (P43626 22-348 limits assumed): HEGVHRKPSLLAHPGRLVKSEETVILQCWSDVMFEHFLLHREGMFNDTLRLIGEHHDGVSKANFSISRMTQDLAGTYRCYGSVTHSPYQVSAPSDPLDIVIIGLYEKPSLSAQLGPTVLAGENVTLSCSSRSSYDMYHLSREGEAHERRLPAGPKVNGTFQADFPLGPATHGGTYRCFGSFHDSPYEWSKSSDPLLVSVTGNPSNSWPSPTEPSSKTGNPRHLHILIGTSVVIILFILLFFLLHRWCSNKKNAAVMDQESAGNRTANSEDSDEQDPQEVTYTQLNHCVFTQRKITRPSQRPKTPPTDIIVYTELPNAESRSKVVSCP
Description: as §2
as §2, with “In Table 4, replicate” for “Replicate”, “the” for “a complete”, “panel (as in FIG. 1A, FIG. 2B, and FIG. 2C)” for “panel”

[7] = target: T7, KIR2DL2 (UniProt P43627 22-348, limits assumed); test: HEK293 cell microarray
T7 construct: whole, on cells
T7 sequence (P43627 22-348 limits assumed): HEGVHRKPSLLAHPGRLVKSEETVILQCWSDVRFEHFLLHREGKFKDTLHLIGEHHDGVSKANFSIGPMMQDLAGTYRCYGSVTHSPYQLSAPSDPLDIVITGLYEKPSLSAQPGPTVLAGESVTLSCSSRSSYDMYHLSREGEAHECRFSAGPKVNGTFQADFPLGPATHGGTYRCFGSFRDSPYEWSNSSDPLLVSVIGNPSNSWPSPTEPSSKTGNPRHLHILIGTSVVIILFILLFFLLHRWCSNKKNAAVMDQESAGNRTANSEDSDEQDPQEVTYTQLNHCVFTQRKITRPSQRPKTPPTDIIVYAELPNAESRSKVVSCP
Description: as §2
as §2, with “In Table 4, replicate” for “Replicate”, “the” for “a complete”, “panel (as in FIG. 1A, FIG. 2B, and FIG. 2C)” for “panel”

[8] = target: T8, KIR2DL3 (UniProt P43628 22-341, limits assumed); test: HEK293 cell microarray
T8 construct: whole, on cells
T8 sequence (P43628 22-341 limits assumed): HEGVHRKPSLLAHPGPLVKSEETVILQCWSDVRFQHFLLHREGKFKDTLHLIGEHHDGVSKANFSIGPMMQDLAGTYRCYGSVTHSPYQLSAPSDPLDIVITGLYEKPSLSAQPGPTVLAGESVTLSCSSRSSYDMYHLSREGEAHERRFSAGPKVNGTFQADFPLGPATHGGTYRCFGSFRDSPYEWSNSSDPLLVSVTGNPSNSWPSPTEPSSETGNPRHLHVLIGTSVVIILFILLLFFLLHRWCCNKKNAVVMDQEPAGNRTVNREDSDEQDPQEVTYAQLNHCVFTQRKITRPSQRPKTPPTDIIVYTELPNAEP
Description: as §2
as §2, with “In Table 4, replicate” for “Replicate”, “the” for “a complete”, “panel (as in FIG. 1A, FIG. 2B, and FIG. 2C)” for “panel”

[9] = target: T9, KIR2DL4 (UniProt Q99706 22-377, limits assumed); test: HEK293 cell microarray
T9 construct: whole, on cells
T9 sequence (Q99706 22-377 limits assumed): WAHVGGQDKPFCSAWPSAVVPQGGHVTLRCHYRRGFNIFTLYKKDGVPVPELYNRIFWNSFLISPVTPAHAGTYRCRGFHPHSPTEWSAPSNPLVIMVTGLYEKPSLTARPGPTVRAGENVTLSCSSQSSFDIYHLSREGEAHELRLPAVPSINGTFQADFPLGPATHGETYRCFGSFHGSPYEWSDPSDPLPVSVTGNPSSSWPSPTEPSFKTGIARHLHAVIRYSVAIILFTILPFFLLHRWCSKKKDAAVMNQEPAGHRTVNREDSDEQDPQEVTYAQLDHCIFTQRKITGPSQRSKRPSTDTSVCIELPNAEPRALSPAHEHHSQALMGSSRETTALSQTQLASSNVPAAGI
Description: as §2
as §2, with “In Table 4, replicate” for “Replicate”, “the” for “a complete”, “panel (as in FIG. 1A, FIG. 2B, and FIG. 2C)” for “panel”

[10] = target: T10, KIR2DS1 (UniProt Q14954 22-304, limits assumed); test: HEK293 cell microarray
T10 construct: whole, on cells
T10 sequence (Q14954 22-304 limits assumed): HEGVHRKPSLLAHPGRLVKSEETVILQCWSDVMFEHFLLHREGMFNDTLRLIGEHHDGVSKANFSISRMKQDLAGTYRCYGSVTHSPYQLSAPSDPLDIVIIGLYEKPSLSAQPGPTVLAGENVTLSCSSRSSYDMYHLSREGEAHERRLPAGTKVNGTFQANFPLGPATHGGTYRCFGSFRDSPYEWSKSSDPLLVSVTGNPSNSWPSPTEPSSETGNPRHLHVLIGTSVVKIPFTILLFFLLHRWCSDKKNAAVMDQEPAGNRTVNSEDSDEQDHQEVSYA
Description: as §2
as §2, with “In Table 4, replicate” for “Replicate”, “the” for “a complete”, “panel (as in FIG. 1A, FIG. 2B, and FIG. 2C)” for “panel”

[11] = target: T11, KIR2DS2 (UniProt P43631 22-304, limits assumed); test: HEK293 cell microarray
T11 construct: whole, on cells
T11 sequence (P43631 22-304 limits assumed): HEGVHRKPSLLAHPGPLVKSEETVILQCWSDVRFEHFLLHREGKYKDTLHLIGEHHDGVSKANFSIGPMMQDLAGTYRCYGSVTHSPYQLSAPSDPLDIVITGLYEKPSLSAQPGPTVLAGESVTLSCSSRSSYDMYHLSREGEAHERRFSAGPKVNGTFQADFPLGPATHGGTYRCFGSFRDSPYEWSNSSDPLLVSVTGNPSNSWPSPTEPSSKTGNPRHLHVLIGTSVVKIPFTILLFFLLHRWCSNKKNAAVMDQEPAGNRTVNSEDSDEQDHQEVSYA
Description: as §2
as §2, with “In Table 4, replicate” for “Replicate”, “the” for “a complete”, “panel (as in FIG. 1A, FIG. 2B, and FIG. 2C)” for “panel”

[12] = target: B1; test: HEK293 cell microarray
Description: as §2
as §2, with “In Table 4, replicate” for “Replicate”, “the” for “a complete”, “panel (as in FIG. 1A, FIG. 2B, and FIG. 2C)” for “panel”

[13] = target: T12, KIR2DS5 (UniProt Q14953 22-304, limits assumed); test: HEK293 cell microarray
T12 construct: whole, on cells
Description: as §2
as §2, with “In Table 4, replicate” for “Replicate”, “the” for “a complete”, “panel (as in FIG. 1A, FIG. 2B, and FIG. 2C)” for “panel”

[14] = target: T13, KIR3DS1 (UniProt Q14943 22-382, limits assumed); test: HEK293 cell microarray
T13 construct: whole, on cells
T13 sequence (Q14943 22-382 limits assumed): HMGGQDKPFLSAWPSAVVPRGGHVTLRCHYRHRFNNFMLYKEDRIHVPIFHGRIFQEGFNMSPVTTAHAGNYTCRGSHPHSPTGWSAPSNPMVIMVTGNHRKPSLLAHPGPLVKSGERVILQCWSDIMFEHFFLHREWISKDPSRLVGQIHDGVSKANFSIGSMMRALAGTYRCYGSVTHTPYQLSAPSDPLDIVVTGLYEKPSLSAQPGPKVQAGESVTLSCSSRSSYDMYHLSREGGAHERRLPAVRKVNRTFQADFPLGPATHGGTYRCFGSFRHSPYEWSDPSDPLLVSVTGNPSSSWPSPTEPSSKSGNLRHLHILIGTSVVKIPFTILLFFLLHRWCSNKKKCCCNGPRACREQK
Description: as §2
as §2, with “In Table 4, replicate” for “Replicate”, “the” for “a complete”, “panel (as in FIG. 1A, FIG. 2B, and FIG. 2C)” for “panel”

## B1
[1]
  binding result: no binding (tested: 20 ug/ml)

B2: PD-1 EH13.2A11.17.1 human IgG4 (S228P) (antibody, V domains shown)
VH: EVKLVESGGGLVQPGGSLKLSCAASGFTFSSFTLSWVRQTPEKRLEWVAYISYGGADTYYPDTVKGRFTIFRDNAKNTLYLQMSSLKSEDTARYYCARHGPYGKGDYYAMDYWGQGTSVTVSS
VL: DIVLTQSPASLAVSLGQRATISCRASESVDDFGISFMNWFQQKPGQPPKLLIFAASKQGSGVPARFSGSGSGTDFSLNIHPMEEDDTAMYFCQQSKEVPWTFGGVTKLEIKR
notes: Chimeric: mouse EH13 variable domains on human IgG4 (S228P) and human kappa (Km3); The printed word SignalPeptide_ is a placeholder and is left out; also called LP PD-1 mAb (TP-31850); PD-1 mAb EH13 human IgG4
[2]
  Kd: 6.88 nM
  koff: 0.00137 s⁻¹
  kon: 199000 M⁻¹ s⁻¹

B3: PD-1 mAb EH13.2A11.17.1 (antibody, V domains shown)
VH: EVKLVESGGGLVQPGGSLKLSCAASGFTFSSFTLSWVRQTPEKRLEWVAYISYGGADTYYPDTVKGRFTIFRDNAKNTLYLQMSSLKSEDTARYYCARHGPYGKGDYYAMDYWGQGTSVTVSS
VL: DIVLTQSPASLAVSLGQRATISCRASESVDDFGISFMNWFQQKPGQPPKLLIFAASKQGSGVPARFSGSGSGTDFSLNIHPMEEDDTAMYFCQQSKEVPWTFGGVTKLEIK
notes: Parental mouse hybridoma antibody; also called parental control hybridoma
[2]
  Kd: 7.1 nM
  koff: 0.00154 s⁻¹
  kon: 216000 M⁻¹ s⁻¹

B4: KIR3DL3 mAb 574.2.2F11.2.7.4 human IgG4 (S228P) (antibody, V domains shown)
VH: DVQLVESGGGLVQPGGSRKLSCAASGFTFSYFGMHWVRRAPEKGLEWVAFISSDSTTIYYTDTVKGRFTISRDNPKNTLFLQMTSLRSEDTAIYYCARFYDGAMDYWGQGTSVTVST
VL: DIVMTQSQKFMSTSVGDRVSITCKASQSVRTAVAWYQQKPGQSPKVLIYLASNRHTGVPDRFTGSGSGTDFTLTISNVQSEDLADYFCLQHWNYPLTFGAGTKLELKR
notes: Chimeric: mouse 2F11 variable domains on human IgG4 (S228P) and human kappa (Km3); Signal peptide placeholder left out; also called LP KIR3DL3 mAb (TP-31851); KIR3DL3 mAb 2F11 human IgG4
[3]
  Kd: 0.289 nM
  koff: 7.19e-05 s⁻¹
  kon: 248000 M⁻¹ s⁻¹

B5: KIR3DL3 mAb 574.2.1D12.1.6 (antibody, IgG2a, V domains shown)
VH: QVQLQQSGAELVRPGTSVKVSCKASGYAFNNYLIEWVKQRPGQGLEWIGVINPGSGGTNDNEKFRGKATLTADTSSSTAYMQLTSLTSDDSAVYFCARGNYYGTRDWYFDVWGAGTTVTVSS
VL: QIVLTQSPAIMSASLGARVTMTCTASSSVSSSSLHWYQQKPGSSPKLWIYSISSLASGVPARFSGSGSGTSYSLTISSLEAEDAATYYCHQYHRSPPTFGGGTKLEIK
notes: Mouse hybridoma antibody, IgG2a; only variable domains given; also called AVS-3705
[4]
  binding result: no binding (tested: supernatant 1:5, 1:25, 1:250)
[5]
  binding result: no binding (tested: supernatant 1:5, 1:25, 1:250)
[6]
  binding result: no binding (tested: supernatant 1:5, 1:25, 1:250)
[7]
  binding result: no binding (tested: supernatant 1:5, 1:25, 1:250)
[8]
  binding result: no binding (tested: supernatant 1:5, 1:25, 1:250)
[9]
  binding result: no binding (tested: supernatant 1:5, 1:25, 1:250)
[10]
  binding result: no binding (tested: supernatant 1:5, 1:25, 1:250)
[11]
  binding result: no binding (tested: supernatant 1:5, 1:25, 1:250)
[12]
  binding result: no binding (tested: supernatant 1:5, 1:25, 1:250)
[13]
  binding result: no binding (tested: supernatant 1:5, 1:25, 1:250)
[14]
  binding result: no binding (tested: supernatant 1:5, 1:25, 1:250)
